In the nanobody polyreactivity screen of Harvey et al. (2022):

Assay: yeast display, Sf9 membrane polyspecificity reagent, FACS + sequencing; frameworks hold sequencing errors
In short: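 Galactose-induced (36–48 hours) yeast carrying a synthetic nanobody display library were exposed to 10% biotinylated, detergent-solubilized Sf9 membrane reagent at 4 °C for 1 hour. FACS followed streptavidin microbead enrichment, using low and high (top ~1%) gates for expression (anti-HA) and reagent binding (streptavidin). Colony PCR, MiSeq 2 × 250 sequencing and CDR-length filtering followed. Labels for polyreactivity reflect the gate of origin.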

Sequence | polyreactivity (PSR sort gate)
QVQLVESGGGLVQAGGSLRLSCAASGLTFNDYAMGWYRQAPGKERELVAAISDIGGGTYYADSVKGRFTISRDNAKNTVYLQMNSLKPEETAVYYCAAEWQDWYGVDSWGQGTQVTVSS | low polyreactivity
QVQLVESGGGLVQAGGSLRLSCAASGLTFNHNAMGWYRQAPGKERELVAAISRRGGSTYYADSVKGRFTISRDNAKNTVYLQMNSLKPEDTAVYYCNAPVKVRATTNWEYDYWGQGTQVTVSS | high polyreactivity
QVQLVESGGGLVQAGGSLRLSCAASGLTFNRNAMGWYRQAPGKERELVATISGSGASTYYADSVKGRFTISRDYAKNTVYLQMNSLKPEDTAVYDCAARWHYSWGSYGFDYWGQGTQVTVSS | high polyreactivity
QVQLVESGGGLVQAGGSLRLSCAASGLTFNTYAMGWYRQAPGKERELVAAITKGGGRTYYADSVKGRFTISRDNAKNTVYLQMNSLKPEDTAVYYCAAYGYIYRVGYANGVVTSQDDYWGQGTQVTVSS | high polyreactivity
QVQLVESGGGLVQAGGSLRLSCAASGLTFNVNAMGWYRQAPGKERELVARINTSGGSTSYADSVKGRFTISRDNAKNTVYLQMNSLKPEDTAVYYCAADRARYYSEYDYWGQGTQVTVSS | low polyreactivity
QVQLVESGGGLVQAGGSLRLSCAASGLTFNVYAMGWYRQAPGKERELVASITKRGGSTYYADSVKGRFTISRDNAKNTVYLQMNSLKPEDTAVYYCAADGLTGSKYRATGYYWGQGTQVTVSS | high polyreactivity
QVQLVESGGGLVQAGGSLRLSCAASGLTFPRNTMGWYRQAPGKERELVAVISSSGGITYYADSVKGRFTISRDNAKNTVYLQMNSLKPEDTAVYYCAARTRVPRMGYWGQGTQVTVSS | high polyreactivity
QVQLVESGGGLVQAGGSLRLSCAASGLTFPSNAMGWYRQAPGKERELVAAITSVGITYYADSVKGRFTISRDNAKNTVYLQMNSLKPEDTAVYYCNAPPGGGWYARDDNWGQGTQVTVSS | low polyreactivity
QVQLVESGGGLVQAGGSLRLSCAASGLTFPWYAMGWYRQAPGKERELVASINSSTGSTYYADSVKGRFTISRDNAKNTVYLQMNSLKPEDTAVYYCAAVEYGNMDWGQGTQVTVSS | low polyreactivity
QVQLVESGGGLVQAGGSLRLSCAASGLTFPYYAMGWYRQAPGKERELVAAISNSGGSTYYADSVKGRFTISRDNAKNTVYLQMNIVKPEDTAVYYCAAYNSYSDYGYWGHGTQVTVSS | high polyreactivity
QVQLVESGGGLVQAGGSLRLSCAASGLTFPYYVMGWYRQAPGKERELVAAISSSGGSTYYADSVKGRFTISRDNAKNTVYLQMNSLKPEDTAVYYCNALGHFSKIATYDYWGQGTQVTVSS | low polyreactivity
QVQLVESGGGLVQAGGSLRLSCAASGLTFQWNAMGWYRQAPGKERELVAGITDIGDSTYYADSVKGRFTISRDNAKNTVYFQMNSLKPEDTAVYYCNATSGYKHAWRSENGYWGQGTQVTVSS | low polyreactivity
QVQLVESGGGLVQAGGSLRLSCAASGLTFQYYTMGWYRQAPGKERELVAAINWSGGSTYYADSVKGRFTISRDNAKNTVYLQMNSLKPVDTAVYYCNAVRFVEHDYWGQGTQVTVSS | high polyreactivity
QVQLVESGGGLVQAGGSLRLSCAASGLTFRINTMGWYRQAPGKERELVASISKSGSSTYYADSVKGRFTISRDNAKNTVYLQMNSLKPEDTAVYYCAARTRTLYVTYYSWGQGTQVTVSS | high polyreactivity
QVQLVESGGGLVQAGGSLRLSCAASGLTFRKYAMGWYRQAPGKERELVAAITGSGGRTYYADSVKGRFTISRDNAKNTVYLQMNSLKPEDTAVYYCAADDYFHDDYCGQGTQVTVSS | high polyreactivity
QVQLVESGGGLVQAGGSLRLSCAASGLTFRKYAMGWYRQAPGKERELVATISRNGGSTYFADSVKGRFTISRDNAKNTVYLQMNSLKPEDTAVYYCAADYYTYDYAGYGYWGQGTQVTVSS | high polyreactivity

Sequence | polyreactivity (PSR sort gate)
QVQLVESGGGLVQAGGSLRLSCAASGLTFRRYAMGWYRQAPGKERELVAAISSSGGNTYYADSVKGRFTISRDNAKNTVYLQMNSLQPEDTAVYYCATRYKSPSFDYWGQGTQVTVSS | high polyreactivity
QVQLVESGGGLVQAGGSLRLSCAASGLTFRSYTMGWYRQAPGKERELVAAISSGGSTYYADSVKGRFTISRDNAKHTVYLKMNSRKPEDTAVYYCAAPRGHGKYYSWGQGTQVNVSS | high polyreactivity
QVQLVESGGGLVQAGGSLRLSCAASGLTFRSYTMGWYRQAPGTERELVAAISSGGSTYYADSVKGRFTISRDNAKNTVYLQMNSLKPEDTAVYYCAAPRGHGKYYSWGQGTQVTVSS | high polyreactivity
QVQLVESGGGLVQAGGSLRLSCAASGLTFRTYAMGWYRQAPGKERELVAAITWSGDSTYADSVKGRFTISRDNAKNTVYLQMNSLKPEDTAVYYCATKGYFSYHPYDYWGQGTQVTVSS | low polyreactivity
QVQLVESGGGLVQAGGSLRLSCAASGLTFRVYAMGWYRQAPGKERELVASISRTGSTTYADSVKGRFTISRDNAKNTVYLQMNSLKPEDTAVYYCNARYYVLLWDSLAREYWGQGTQVTVSS | high polyreactivity
QVQLVESGGGLVQAGGSLRLSCAASGLTFRWYALGWFRQATGKERELVAAISSGGRTYYADSVKGRFTISRDNANNTVYLQMNSRKPEDTAVYYCNKRTLDYGFGSYGREYWGQGTQVTVSS | high polyreactivity
QVQLVESGGGLVQAGGSLRLSCAASGLTFRWYAMGWYRQEPGKERELVAAISSSGNTNYADSVKGRFTISRDNAKNTVYLQMNSLKPGDSAVYYCAASYYSYPPGLSQTRLTYYYWGQGTQLTVSS | high polyreactivity
QVQLVESGGGLVQAGGSLRLSCAASGLTFRYNAMGWYRQAPGKERELVARISRNGGRTYYADSVKGRFTISRDNAKNTVYLQMNSLKPEDTAVYYCNVVYFVTTSPCYDYWGQGTQVTVSS | high polyreactivity
QVQLVESGGGLVQAGGSLRLSCAASGLTFRYYTMGWYRQAPGKERELVASITSGGITYYADSVKGRFTISRDNAKNTVYLQMNSLKPEDTAVYYCAKGSYRTTYGALGVKFGYWGQGTKVTVSS | high polyreactivity
QVQLVESGGGLVQAGGSLRLSCAASGLTFRYYTMGWYRQAPGNERELVASSTSGGITYYADSVKGRFTISRDNAKNTVYLQMNSLKPEDPAVYYCAKGSYRTTYGALGVKYGYWGQGTQVTVSS | high polyreactivity
QVQLVESGGGLVQAGGSLRLSCAASGLTFSCYAMGWYRQAPGKERELVASINYSGANTYYADSVKGRFTISRDNAKNTVYLQMNSLKPEDTAVYYCNTRRRRYQNERVTYDYWGQGTQVTVSS | high polyreactivity
QVQLVESGGGLVQAGGSLRLSCAASGLTFSDYAMGWYRQAPGKERELVAAITWRGTSTYYADSVKGRFTISRDNAKNTVYLQMNSLKPEDTAVYYCAARKYTGSGTRYYYWGQGTQVTVSS | high polyreactivity
QVQLVESGGGLVQAGGSLRLSCAASGLTFSDYTMGWYRQAPGKERELVAAISDSTGSTYYADSVKGRFTMSRDNAKNTVYLQMNSLKPEDTAVYNCIAYGYYHRLYSYTYGYWGQGTQVTVSS | low polyreactivity
QVQLVESGGGLVQAGGSLRLSCAASGLTFSGNTMGWYRQAPGKVRELVAAISSDGSTNYADSVKGRFTISRDNAKNTVYLQMNSLKPEDTAVYYCNARVRYYFAFWRDYWGQGTQVTVSS | low polyreactivity
QVQLVESGGGLVQAGGSLRLSCAASGLTFSKNAMGWYRQAPGKERELVATISYSSSRTNYADSVKGRFTISRDNAKNTVYLQMNSLKPEDTAVYYCAARVYKGWPTHYDYWGQGTQVTVSS | high polyreactivity
